Assay results from patent publication US20140087995A1 (published 2014).
Numbered stars: 1 amine (or outer) side, 2 acyl side, 3 side chain; on linkers, the order of the positions; unused ones are H or OH. Bridge positions count the residues as written; N and C are the ends. Side chains are listed from the residue outwards. Ends that are not written are not given here. * marks the point of attachment. C20 diacid = O=C(O)CCCCCCCCCCCCCCCCCCC(=O)*; γGlu = O=C(O)[C@H](CCC(=O)[*:2])N[*:1]

T1: rat calcitonin receptor (rat, UniProt P32214 25-516)
T1 construct: whole, on cells; In cell membranes prepared from transiently transfected BHK tk'ts 13 cells (Assay VIII); also called rCTR; rat calcitonin (a) receptor
T1 sequence (looked up): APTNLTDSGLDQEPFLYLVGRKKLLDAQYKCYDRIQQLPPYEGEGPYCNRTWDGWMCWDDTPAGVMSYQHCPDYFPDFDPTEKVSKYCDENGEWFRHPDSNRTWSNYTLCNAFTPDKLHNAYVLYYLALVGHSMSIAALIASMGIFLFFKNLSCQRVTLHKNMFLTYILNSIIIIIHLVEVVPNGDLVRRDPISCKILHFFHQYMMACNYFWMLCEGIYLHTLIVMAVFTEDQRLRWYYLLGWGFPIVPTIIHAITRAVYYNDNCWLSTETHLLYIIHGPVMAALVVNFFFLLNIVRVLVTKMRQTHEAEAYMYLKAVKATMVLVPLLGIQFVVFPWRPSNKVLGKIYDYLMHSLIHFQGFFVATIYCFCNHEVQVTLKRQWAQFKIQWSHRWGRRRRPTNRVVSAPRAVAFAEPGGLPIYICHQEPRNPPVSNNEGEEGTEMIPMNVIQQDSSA

T2: human calcitonin receptor (human, UniProt P30988 25-474)
T2 construct: whole, on cells; Cell membranes from the stably transfected cell line (Assay VII); also called hCTR; hCT
T2 sequence (looked up): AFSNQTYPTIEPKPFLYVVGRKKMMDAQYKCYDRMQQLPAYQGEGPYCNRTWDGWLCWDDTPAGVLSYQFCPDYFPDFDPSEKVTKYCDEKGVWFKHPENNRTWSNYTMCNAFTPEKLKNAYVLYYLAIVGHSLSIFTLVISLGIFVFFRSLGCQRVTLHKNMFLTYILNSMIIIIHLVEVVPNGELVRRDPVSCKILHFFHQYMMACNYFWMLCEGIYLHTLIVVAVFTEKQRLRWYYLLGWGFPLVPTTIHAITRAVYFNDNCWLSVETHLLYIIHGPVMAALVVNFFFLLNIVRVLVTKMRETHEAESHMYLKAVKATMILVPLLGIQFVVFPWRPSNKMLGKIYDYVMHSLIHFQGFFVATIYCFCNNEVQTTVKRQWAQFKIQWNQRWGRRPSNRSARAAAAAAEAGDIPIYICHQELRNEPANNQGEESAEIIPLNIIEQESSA

T3: rat amylin receptor (rat calcitonin receptor + rat RAMP 3) (rat, UniProt P32214 25-516; Q9JJ73 23-147)
T3 construct: whole, on cells; Receptor complex in cell membranes prepared from transiently transfected BHK tk'ts 13 cells (Assay VI); also called rAmylin-R; rat amylin 3(a) receptor
T3 sequence (looked up) 1: T1 sequence (looked up)
T3 sequence (looked up) 2: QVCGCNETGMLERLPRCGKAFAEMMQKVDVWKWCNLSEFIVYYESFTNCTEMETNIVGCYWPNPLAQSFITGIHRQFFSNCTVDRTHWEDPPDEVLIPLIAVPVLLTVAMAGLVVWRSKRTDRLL

B1: N^ε1-[(4S)-4-carboxy-4-[[(4S)-4-carboxy-4-(19-carboxynonadecanoylamino)butanoyl]amino]butanoyl]-[Glu14,Arg17,Pro21,Pro27,Pro34,Glu35,Pro37]-h-amylin (peptide)
peptide: K([γGlu-γGlu-C20 diacid])CNTATCATQRLAEFLRHSSPNFGAIPSSTNVGPETP-NH2
modifications: disulfide 2-7; N-terminus assumed
SMILES: CC[C@H](C)[C@H](NC(=O)[C@H](C)NC(=O)CNC(=O)[C@H](Cc1ccccc1)NC(=O)[C@H](CC(N)=O)NC(=O)[C@@H]1CCCN1C(=O)[C@H](CO)NC(=O)[C@H](CO)NC(=O)[C@H](Cc1c[nH]cn1)NC(=O)[C@H](CCCNC(=N)N)NC(=O)[C@H](CC(C)C)NC(=O)[C@H](Cc1ccccc1)NC(=O)[C@H](CCC(=O)O)NC(=O)[C@H](C)NC(=O)[C@H](CC(C)C)NC(=O)[C@H](CCCNC(=N)N)NC(=O)[C@H](CCC(N)=O)NC(=O)[C@@H](NC(=O)[C@H](C)NC(=O)[C@@H]1CSSC[C@H](NC(=O)[C@@H](N)CCCCNC(=O)CC[C@H](NC(=O)CC[C@H](NC(=O)CCCCCCCCCCCCCCCCCCC(=O)O)C(=O)O)C(=O)O)C(=O)N[C@@H](CC(N)=O)C(=O)N[C@@H]([C@@H](C)O)C(=O)N[C@@H](C)C(=O)N[C@@H]([C@@H](C)O)C(=O)N1)[C@@H](C)O)C(=O)N1CCC[C@H]1C(=O)N[C@@H](CO)C(=O)N[C@@H](CO)C(=O)N[C@H](C(=O)N[C@@H](CC(N)=O)C(=O)N[C@H](C(=O)NCC(=O)N1CCC[C@H]1C(=O)N[C@@H](CCC(=O)O)C(=O)N[C@H](C(=O)N1CCC[C@H]1C(N)=O)[C@@H](C)O)C(C)C)[C@@H](C)O
B2: N^ε1-[(4S)-4-carboxy-4-[[(4S)-4-carboxy-4-(19-carboxynonadecanoylamino)butanoyl]amino]butanoyl]-[Glu14,Arg17,Pro21,Pro27,Pro34,His35]-h-amylin (peptide)
peptide: K([γGlu-γGlu-C20 diacid])CNTATCATQRLAEFLRHSSPNFGAIPSSTNVGPHTY-NH2
modifications: disulfide 2-7; N-terminus assumed
SMILES: CC[C@H](C)[C@H](NC(=O)[C@H](C)NC(=O)CNC(=O)[C@H](Cc1ccccc1)NC(=O)[C@H](CC(N)=O)NC(=O)[C@@H]1CCCN1C(=O)[C@H](CO)NC(=O)[C@H](CO)NC(=O)[C@H](Cc1c[nH]cn1)NC(=O)[C@H](CCCNC(=N)N)NC(=O)[C@H](CC(C)C)NC(=O)[C@H](Cc1ccccc1)NC(=O)[C@H](CCC(=O)O)NC(=O)[C@H](C)NC(=O)[C@H](CC(C)C)NC(=O)[C@H](CCCNC(=N)N)NC(=O)[C@H](CCC(N)=O)NC(=O)[C@@H](NC(=O)[C@H](C)NC(=O)[C@@H]1CSSC[C@H](NC(=O)[C@@H](N)CCCCNC(=O)CC[C@H](NC(=O)CC[C@H](NC(=O)CCCCCCCCCCCCCCCCCCC(=O)O)C(=O)O)C(=O)O)C(=O)N[C@@H](CC(N)=O)C(=O)N[C@@H]([C@@H](C)O)C(=O)N[C@@H](C)C(=O)N[C@@H]([C@@H](C)O)C(=O)N1)[C@@H](C)O)C(=O)N1CCC[C@H]1C(=O)N[C@@H](CO)C(=O)N[C@@H](CO)C(=O)N[C@H](C(=O)N[C@@H](CC(N)=O)C(=O)N[C@H](C(=O)NCC(=O)N1CCC[C@H]1C(=O)N[C@@H](Cc1c[nH]cn1)C(=O)N[C@H](C(=O)N[C@@H](Cc1ccc(O)cc1)C(N)=O)[C@@H](C)O)C(C)C)[C@@H](C)O
B3: N^ε1-[(4S)-4-carboxy-4-[[(4S)-4-carboxy-4-(19-carboxynonadecanoylamino)butanoyl]amino]butanoyl]-[Glu14,Arg17,Pro21,Pro27,Pro34,Phe37]-h-amylin (peptide)
peptide: K([γGlu-γGlu-C20 diacid])CNTATCATQRLAEFLRHSSPNFGAIPSSTNVGPNTF-NH2
modifications: disulfide 2-7; N-terminus assumed
SMILES: CC[C@H](C)[C@H](NC(=O)[C@H](C)NC(=O)CNC(=O)[C@H](Cc1ccccc1)NC(=O)[C@H](CC(N)=O)NC(=O)[C@@H]1CCCN1C(=O)[C@H](CO)NC(=O)[C@H](CO)NC(=O)[C@H](Cc1c[nH]cn1)NC(=O)[C@H](CCCNC(=N)N)NC(=O)[C@H](CC(C)C)NC(=O)[C@H](Cc1ccccc1)NC(=O)[C@H](CCC(=O)O)NC(=O)[C@H](C)NC(=O)[C@H](CC(C)C)NC(=O)[C@H](CCCNC(=N)N)NC(=O)[C@H](CCC(N)=O)NC(=O)[C@@H](NC(=O)[C@H](C)NC(=O)[C@@H]1CSSC[C@H](NC(=O)[C@@H](N)CCCCNC(=O)CC[C@H](NC(=O)CC[C@H](NC(=O)CCCCCCCCCCCCCCCCCCC(=O)O)C(=O)O)C(=O)O)C(=O)N[C@@H](CC(N)=O)C(=O)N[C@@H]([C@@H](C)O)C(=O)N[C@@H](C)C(=O)N[C@@H]([C@@H](C)O)C(=O)N1)[C@@H](C)O)C(=O)N1CCC[C@H]1C(=O)N[C@@H](CO)C(=O)N[C@@H](CO)C(=O)N[C@H](C(=O)N[C@@H](CC(N)=O)C(=O)N[C@H](C(=O)NCC(=O)N1CCC[C@H]1C(=O)N[C@@H](CC(N)=O)C(=O)N[C@H](C(=O)N[C@@H](Cc1ccccc1)C(N)=O)[C@@H](C)O)C(C)C)[C@@H](C)O

These binders were tested against T1, rat calcitonin receptor (assay: ratio of binding IC50s: rat calcitonin receptor (Assay VIII) over rat amylin receptor (Assay VI)).

Binder | Ratio rCT/rAmylin binding
B1 | 10.6
B2 | 73
B3 | 114
K([γGlu-γGlu-C20 diacid])CNTATCATQRLAEFLRHSSNNPGAILSSTNVGPETY-NH2 (disulfide 2-7) | 132

These binders were tested against T2, human calcitonin receptor (assay: ratio of binding IC50s: human calcitonin receptor (Assay VII) over human amylin receptor (Assay V)).
Procedure: The resulting pellet was resuspended, homogenized and centrifuged (20.000 rpm, 15 min) in a buffer containing 20 mM Na-HEPES and 0.1 mM EDTA (pH 7.4, buffer 2). The resulting pellet was resuspended in buffer 2 and protein concentration was measured (BCA protein Assay, Pierce). The homogenate was kept cold during the whole procedure. The membranes were kept at −80° C. until use. The assay was performed in a 384 well Optiplate (PerkinElmer) in a total volume of 40 ul. Membranes were mixed with SPA beads. Final concentration of membranes 35 ng/μL final and SPA beads was 0.05 mg/well. Test-compounds were dissolved in DMSO and further diluted in assay buffer (50 mM Hepes, pH 7.4, 1 mM CaCl2, 5 mM MgCl₂, 0.1% OA and 0.02% Tween20). […] The final mixture was incubated with shaking at 400 rpm for 120 min at 25° C. prior to centrifugation (1500 rpm, 10 min). Samples were analyzed on TopCounter™ (Packard). The IC₅₀ was calculated using (one site binding competition analysis) GraphPad Prism5 as a measure of receptor affinity.
Membranes were prepared in the following way; the cells were rinsed with PBS and incubated with Versene for approximately 5 min before harvesting. The cells were flushed with PBS and the cell-suspension was centrifuged for 5 min at 1000 rpm. Cells were homogenized (Ultrathurrax) in a buffer containing 20 mM Na-HEPES and 10 mM EDTA (pH 7.4) and centrifuged at 20.000 rpm for 15 min. The resulting pellet was resuspended, homogenized and centrifuged (20.000 rpm, 15 min) in a buffer containing 20 mM Na-HEPES and 0.1 mM EDTA (pH 7.4, buffer 2). The resulting pellet was resuspended in buffer 2 and protein concentration was measured (BCA protein Assay, Pierce). The homogenate was kept cold during the whole procedure. The membranes were kept at −80° C. until use. Assay was performed in a 384 well Optiplate (PerkinElmer) in a total volume of 40 ul. Membranes were mixed with SPA beads.

Binder | Ratio hCT/hAmylin binding
B1 | 0.4
B2 | 27.3
B3 | 18
K([γGlu-γGlu-C20 diacid])CNTATCATQRLAEFLRHSSNNPGAILSSTNVGPETY-NH2 (disulfide 2-7) | 7.8

What follows are binders tested against T1, rat calcitonin receptor (assay: SPA competition binding, displacement of 125I-Calcitonin from membranes of BHK tk'ts 13 cells with rat calcitonin receptor (Assay VIII)).

Binder | IC50 [nM]
B1 | 1.61
B2 | 21
B3 | 23.4
K([γGlu-γGlu-C20 diacid])CNTATCATQRLAEFLRHSSNNPGAILSSTNVGPETY-NH2 (disulfide 2-7) | 86.8

Each binder was assayed against T3, rat amylin receptor (rat calcitonin …) (assay: SPA competition binding, displacement of 125I-rat amylin from membranes of BHK tk'ts 13 cells with rat calcitonin receptor + rat RAMP 3 (Assay VI)).

Binder | IC50 [nM]
B1 | 0.152
B2 | 0.288
B3 | 0.205
K([γGlu-γGlu-C20 diacid])CNTATCATQRLAEFLRHSSNNPGAILSSTNVGPETY-NH2 (disulfide 2-7) | 0.659
